These results are taken from the RNAGym collection of RNA variant scans (doi:10.7554/elife.90254).

The chains are these.
B1: OR4K15 (parent)
chain: GUUAACGGUCAUAGGCCAUGGAAACUAGGAGCACCAUUUCGCUGCCAGUGAAGAAAUGAACAAAGAAAAUCUGGGCCAGGCAGGCAUCAAAAGAAAUAGUCUUGCGCUCAACCAGAAAGUCUGUAAUCAUUUUAAGGGUA

The variants in this data set derive from B1. The data set can be described thus: self-cleavage, relative activity (ratio to wild type); higher = more cleavage; in vitro, sequencing; the parent is a self-cleaving ribozyme.
Turning to GUUAACGGUCAUAGACCAUGGAAGCUAGGAGCACCAUUUCGCUGCCAGUGAAGAAAUGAACAAAGAAAAUCUGGGCCAGGCAGGCAUCAAAAGAAAUAGUCUUGCGCUCAACCAGAAAGUCUGUAAUCAUUUUAAGGGUA [G15A A24G], the self-cleavage came out at 1.4. The value for GUUAACGGUCAUAGACCAUGGAAACUAGGAGCACCAUUUCGCUGCCAGUGAAGAAAUGAACAAAGAAAAUCUGGGCCAGGCAGGCAUCAAAAGAAAUAGUCUUGCGCUCAACCAGAAAGUCUGUAGUCAUUUUAAGGGUA [G15A A126G] was 1.51. For GUUAACGGUCAUAGACCAUGGAAACUAGGAGCACCAUUUCGCUGCCAGUGAAGAAAUGAACAAAGAAAAUCUGGGCCAGGCAGGCAUCAAAAGAAAUAGUCUUGCGCUCAACGAGAAAGUCUGUAAUCAUUUUAAGGGUA [G15A C113G] the value was 0.02; for GUUAACGGUCAUAGACCAUGGAAACUAGGAGCACCAUUUCGCUGCCAGUGAAGAAAUGAACAAAGAAAAUCUGGGCCAGGCAGGCAUCAAAAGAAAUAGUCUCGCGCUCAACCAGAAAGUCUGUAAUCAUUUUAAGGGUA [G15A U103C], 0.82; for GUUAACGGUCAUAGCCCAUGGAAACUAGGAGCACCAUUUCGCUGCCAGUGAAGAAAUGAACAAAGAAAAUCUGGGCCUGGCAGGCAUCAAAAGAAAUAGUCUUGCGCUCAACCAGAAAGUCUGUAAUCAUUUUAAGGGUA [G15C A78U], 0.37. For GUUAACGGUCAUAGCCCAUGGAAACUAGGAGCACCAUUUCGCUGCCAGUGUAGAAAUGAACAAAGAAAAUCUGGGCCAGGCAGGCAUCAAAAGAAAUAGUCUUGCGCUCAACCAGAAAGUCUGUAAUCAUUUUAAGGGUA [G15C A51U] the value was 1.07; for GUUAACGGUCAUAGACCAUGGAAACUAGGAGCACCAUUUCGCUGCCAGUGAAGAAAUGAACAAUGAAAAUCUGGGCCAGGCAGGCAUCAAAAGAAAUAGUCUUGCGCUCAACCAGAAAGUCUGUAAUCAUUUUAAGGGUA [G15A A64U], 1.37; for GUUAACGGUCAUAUGCCAUGGAAACUAGGAGCACCAUCUCGCUGCCAGUGAAGAAAUGAACAAAGAAAAUCUGGGCCAGGCAGGCAUCAAAAGAAAUAGUCUUGCGCUCAACCAGAAAGUCUGUAAUCAUUUUAAGGGUA [G14U U38C], 0.66. With GUUAACGGUCAUAGACCAUGGAAACUAGGAGCACCAUUUCGCUGCCAGUGAAGAAAUGAACAAAGAAAAUCUGGGCCAGGCAGGCAUCAAAAGAAAUAGUCUUGCGCUCAACCAGAAAGUCUGUAAUCGUUUUAAGGGUA [G15A A129G], the self-cleavage worked out at 1.19. In the case of GUUAACGGUCAUAGACCAUGGAAACUAGGAGCACCAUUUCGCUGCCAGUGAAGAAAUGAACAAAGAAAAUCUGGGCCAGGCAGGCAUCAAAAGAAAUAGUCUUGCGCUCAACCAGAAAGUCUGUAAUCAUGUUAAGGGUA [G15A U131G], the self-cleavage amounted to 1.44. The value for GUUAACGGUCAUAGACCAUGGAAACUAGGAGCACCAUUUCGCUGCCAGUGAAGAAAUGAACAAAGAAAAUCUGGGCCAGGCAGGCAUCAAAAGAAAUAGUCUUGCGCUCAACCAGAAAGUCCGUAAUCAUUUUAAGGGUA [G15A U122C] was 0.95. For GUUAACGGUCAUAGACCAUGGAAACUAGGAGCACCAUUUCGCUGCCAGUGAAGAAAUGAACGAAGAAAAUCUGGGCCAGGCAGGCAUCAAAAGAAAUAGUCUUGCGCUCAACCAGAAAGUCUGUAAUCAUUUUAAGGGUA [G15A A62G] the value was 0.1; for GUUAACGGUCAUAGACCAUGGAGACUAGGAGCACCAUUUCGCUGCCAGUGAAGAAAUGAACAAAGAAAAUCUGGGCCAGGCAGGCAUCAAAAGAAAUAGUCUUGCGCUCAACCAGAAAGUCUGUAAUCAUUUUAAGGGUA [G15A A23G], 0.9.

For the variant GUUAACGGUCAUAGACCAUGGAAACUAGGAGCACCAUUUCGCUGCCAGUGAAGAAAUGAACAAAGAAAAUCUGGGCCAGGCAGGCAUCAAAAGAAAUAGUCUUGCGCCCAACCAGAAAGUCUGUAAUCAUUUUAAGGGUA [G15A U108C], the self-cleavage worked out at 0.

With GUUAACGGUCAUAGACCAUGGAAACUAGGAGCACCAUUUCGCUGCCAGUGAAGAAAUGAACAAAGAAAAUCUGGGCCAGGCAGGCAUCAAAAGAAAUAGUCUUGCGCACAACCAGAAAGUCUGUAAUCAUUUUAAGGGUA [G15A U108A], the self-cleavage was determined as 0.01. For GUUAACGGUCAUAGCCCAUGGAAACUAGGAGCACCAUUUCGCUGCCAGUGAAGAAAUGAACAAAGAAAAUCUGGGCCAGGCAGGCAUCAAAAGAAAUAGUCUUGCGCUCAACCAGAAAGUCUGUAAUCAUUUUAAGGGUA [G15C] the value was 1.05; for GUUAACGGUCAUAGACCAUGGAAACUAGGAGCACCAUUUCGCUGCCAGUGAAGAAAUGAACAAAGAAAAUCUGGGCCAGGCAGGCAUCAAAAGAAAUAGUCUUGCGCUCAACCAGAAAGUCUGUAAUCAUUUUAAGGGUA [G15A], 0.92. The value for GUUAACGGUCAUAGACCAUGGAAACUAGGAGCACCAUUUCGCUGCCAGUGAAGAAAUGAACAAAGUAAAUCUGGGCCAGGCAGGCAUCAAAAGAAAUAGUCUUGCGCUCAACCAGAAAGUCUGUAAUCAUUUUAAGGGUA [G15A A66U] was 1.18; that for GUUAACGGUCAUAUGCCAUGGAAACUAGGAGCACCAUUUCGCUGCCAGUGAAGAAAUGAACAAAGAAAAUCUGGGCCAGGCAGGCAUCGAAAGAAAUAGUCUUGCGCUCAACCAGAAAGUCUGUAAUCAUUUUAAGGGUA [G14U A89G] was 1.39.

On to GUUAACGGUCAUAUGCCAUGGAAACUAGGAGCACCAUUUCGCUGCCAGUGAAGAAAUGAACAAAGAAAAUCUGGGCCAGGCAGGCAUCAAAAGAAAUAGUCUUGCGCUCAACCAGAAAGUCUGUAAUCAUUUUAAGGGUA [G14U], for which the self-cleavage stood at 1.11. GUUAACGGUCAUAUGCCAUGGAAACUAGGAGCACCAUUUCGCUGCCAGUGAAGAAAUGAACAAAGAAAAUCUGGGCCAGGCAGGCACCAAAAGAAAUAGUCUUGCGCUCAACCAGAAAGUCUGUAAUCAUUUUAAGGGUA [G14U U87C]: the self-cleavage came out at 1.48.

For GUUAACGGUCAUAGACCAUGGAAACUAGGAGCACCAUUUCGCUGCCAGUGAAGAAAUGAACAAAGAAGAUCUGGGCCAGGCAGGCAUCAAAAGAAAUAGUCUUGCGCUCAACCAGAAAGUCUGUAAUCAUUUUAAGGGUA [G15A A68G], the self-cleavage turned out to be 1.73. As to GUUAACGGUCAUAGACCAUGGAAACUAGGAGCACCAUUUCGCUGCCAGUGAAGAAAUGAACAAAGAAAAUCUGGGCCAGGCAGGCAUCAAAAGAAAUAGUCUUGCGCUCAACCAGAAAGACUGUAAUCAUUUUAAGGGUA [G15A U120A], the self-cleavage was 1.72.

With GUUAACGGUCAUAGACCAUGGAAACUAGGAGCACCAUUUCGCUGCCAGUGAAGAAAUGAACAAAGAAAAUCUGGGCCAGGCAGGCAUCAAAAGAAAUAGUCUUGCGCUCAACCAGAAAGCCUGUAAUCAUUUUAAGGGUA [G15A U120C], the self-cleavage is 1.01. Turning to GUUAACGGUCAUAGACCAUGGAAACUAGGAGCACCAUUUCGCCGCCAGUGAAGAAAUGAACAAAGAAAAUCUGGGCCAGGCAGGCAUCAAAAGAAAUAGUCUUGCGCUCAACCAGAAAGUCUGUAAUCAUUUUAAGGGUA [G15A U43C], the self-cleavage is 1.35. For GUUAACGGUCAUAGACCAUGGAAACUAGGAGCACCAUUUCGCUGCCAGUGAAGAAAUGAACAAAGAAAAUCUGGGCCAGGCAGGCAUCAAAAGAAAUAGUCUUGCGCUCAACCAGAAGGUCUGUAAUCAUUUUAAGGGUA [G15A A118G] the value was 0.47. Consider GUUAACGGUCAUAGACCAUGGAAACUAGGAGCGCCAUUUCGCUGCCAGUGAAGAAAUGAACAAAGAAAAUCUGGGCCAGGCAGGCAUCAAAAGAAAUAGUCUUGCGCUCAACCAGAAAGUCUGUAAUCAUUUUAAGGGUA [G15A A33G], for which the self-cleavage came to 0.94.

On to GUUAACGGUCAUAUGCCAUGGAAACUAGGAGCACCAUUUCGCUGCCAGUGAUGAAAUGAACAAAGAAAAUCUGGGCCAGGCAGGCAUCAAAAGAAAUAGUCUUGCGCUCAACCAGAAAGUCUGUAAUCAUUUUAAGGGUA [G14U A52U], for which the self-cleavage came out at 1.71.

With GUUAACGGUCAUAUGCCAUGGAAACUAGGAGCACCAUUUCGCUGCCAGUGAAGAAAUGAACAAAGAAAAUCUGGGCCAGGCAGGCAUCAAAAGAAAUAGUCUUGCGCUCAACCAGGAAGUCUGUAAUCAUUUUAAGGGUA [G14U A116G], the self-cleavage came to 0.63. For GUUAACGGUCAUAUGCCAUGGAAACUAGGAGCACCAUUUCGCUGCCAGUGAAGGAAUGAACAAAGAAAAUCUGGGCCAGGCAGGCAUCAAAAGAAAUAGUCUUGCGCUCAACCAGAAAGUCUGUAAUCAUUUUAAGGGUA [G14U A54G] the value was 1.65. As for GUUAACGGUCAUAGACCACGGAAACUAGGAGCACCAUUUCGCUGCCAGUGAAGAAAUGAACAAAGAAAAUCUGGGCCAGGCAGGCAUCAAAAGAAAUAGUCUUGCGCUCAACCAGAAAGUCUGUAAUCAUUUUAAGGGUA [G15A U19C], the self-cleavage was 0. The value for GUUAACGGUCAUAGCCCAUGGAAACUAGGAGCACCAUUUCGCUGCCAGUGAAGAAAUGAACAAAGAAAAUCUAGGCCAGGCAGGCAUCAAAAGAAAUAGUCUUGCGCUCAACCAGAAAGUCUGUAAUCAUUUUAAGGGUA [G15C G73A] was 0.17; that for GUUAACGGUCAUAGACCAUGGAAACUAGGAGCACCAUUUCGCUGCCAGUGUAGAAAUGAACAAAGAAAAUCUGGGCCAGGCAGGCAUCAAAAGAAAUAGUCUUGCGCUCAACCAGAAAGUCUGUAAUCAUUUUAAGGGUA [G15A A51U] was 1.78.

As for GUUAACGGUCAUAGACCAUGGAAACUAGGAGCACCAUUUCGCUGCCAGUGGAGAAAUGAACAAAGAAAAUCUGGGCCAGGCAGGCAUCAAAAGAAAUAGUCUUGCGCUCAACCAGAAAGUCUGUAAUCAUUUUAAGGGUA [G15A A51G], the self-cleavage came to 1.52. For GUUAACGGUCAUAUGCCAUGGAAACUAGGAGCACCAUUUCGCUGCCAGUGAAGAAGUGAACAAAGAAAAUCUGGGCCAGGCAGGCAUCAAAAGAAAUAGUCUUGCGCUCAACCAGAAAGUCUGUAAUCAUUUUAAGGGUA [G14U A56G] the value was 1.18; for GUUAACGGUCAUAUGCCAUGGAAACUAGGAGCACCAUUUCGCUGCCAGUGAAGAAAUGAACAAAGAAAAUCUGGGCCAGGCAGGCAUCAAAAGAAAUAGUCAUGCGCUCAACCAGAAAGUCUGUAAUCAUUUUAAGGGUA [G14U U102A], 0.36. For GUUAACGGUCAUAGACCAUGGAAACUAGGAGCACCAUUUCGCUGCCAGUGAAGAAAUGAACAAAGAAAAUCUGGGCCAGGCAGGCGUCAAAAGAAAUAGUCUUGCGCUCAACCAGAAAGUCUGUAAUCAUUUUAAGGGUA [G15A A86G] the value was 1.6; for GUUAACGGUCAUAGACCAUGGAAACUAGGAGCACCAUUUCGCUGCCAGUGAAGAAAUGAACAAAGAAAAUCUGGGCCAGGCAGGCAUCAAAAGAGAUAGUCUUGCGCUCAACCAGAAAGUCUGUAAUCAUUUUAAGGGUA [G15A A95G], 1.73; for GUUAACGGUCAUAGCCCAUGGAAACUAGGAGCACCAUUUCGCUGCCAGUGAAGAAAUGAACAAAGAAAAUCUGGGCCAGGCAGGCAUCAAAAGAAAUAGUCUUGCGCUCAGCCAGAAAGUCUGUAAUCAUUUUAAGGGUA [G15C A111G], 0.01.

Take GUUAACGGUCAUAGCCCAUGGAAACUAGGAGCACCAUUUCGCUGCCAGUGAAGAAAUGAACAAAGAAAAUCUGGGCCAGGCAAGCAUCAAAAGAAAUAGUCUUGCGCUCAACCAGAAAGUCUGUAAUCAUUUUAAGGGUA [G15C G83A]: the self-cleavage was found to be 2.06. On to GUUAACGGUCAUAGACCAUGGAAACUAGGAGCACCAUUUCGCUGCCAGUGAAGAAAUGAACAAAGAAAAUCCGGGCCAGGCAGGCAUCAAAAGAAAUAGUCUUGCGCUCAACCAGAAAGUCUGUAAUCAUUUUAAGGGUA [G15A U72C], for which the self-cleavage is 0.37.
